The chains are these.
B1: POU domain, class 2, transcription factor 2, residues 200 to 269; numbered along this chain, P09086 (parent)
chain: LEELEQFARTFKQRRIKLGFTQGDVGLAMGKLYGNDFSQTTISRFEALNLSFKNMCKLKPLLEKWLNDAE

Data on 38 variants can be found in the Human Domainome abundance scans (Beltran et al. 2025).

± gives the uncertainty stated by the source.

Variants of B1 are the subject of the data set. In words: abundance fitness (aPCA) (normalised: wild type 0, dead -1); higher = more abundant; growth selection in yeast, the domain comes from the species named. The following applies: Homo sapiens.
Turning to LEELEQFARTFKQRRIKLGFTQGDVGLAMGKLYGNDFSQVTISRFEALNLSFKNMCKLKPLLEKWLNDAE [T40V], the abundance fitness amounted to 0.068 ± 0.046.

As to LEELEQFARTFKQRRIKLGFTQGDVGLAMGKLYGNDFSQHTISRFEALNLSFKNMCKLKPLLEKWLNDAE [T40H], the abundance fitness was -0.161 ± 0.13.

Consider LEELEQFARTFKQRRIKLGFTQGDVGLAMGKLYGNDFSQETISRFEALNLSFKNMCKLKPLLEKWLNDAE [T40E], for which the abundance fitness was -0.002 ± 0.063.

For the variant LEELEQFARTFKQRRIKLGFTQGDVGLAMGKLYGNDFSQYTISRFEALNLSFKNMCKLKPLLEKWLNDAE [T40Y], the abundance fitness is 0.031 ± 0.12.

Take LEELEQFARTFKQRRIKLGFTQGDVGLAMGKLYGNDFSQKTISRFEALNLSFKNMCKLKPLLEKWLNDAE [T40K]: the abundance fitness was 0.232 ± 0.2.

On to LEELEQFARTFKQRRIKLGFTQGDVGLAMGKLYGNDFSQQTISRFEALNLSFKNMCKLKPLLEKWLNDAE [T40Q], for which the abundance fitness is 0.009 ± 0.064.

As for LEELEQFARTFKQRRIKLGFTQGDVGLAMGKLYGNDFSQMTISRFEALNLSFKNMCKLKPLLEKWLNDAE [T40M], the abundance fitness was -0.058 ± 0.085.

LEELEQFARTFKQRRIKLGFTQGDVGLAMGKLYGNDFSQGTISRFEALNLSFKNMCKLKPLLEKWLNDAE [T40G]: the abundance fitness was -0.036 ± 0.042.

LEELEQFARTFKQRRIKLGFTQGDVGLAMGKLYGNDFSQPTISRFEALNLSFKNMCKLKPLLEKWLNDAE [T40P]: the abundance fitness was -0.072 ± 0.087.

For LEELEQFARTFKQRRIKLGFTQGDVGLAMGKLYGNDFSQRTISRFEALNLSFKNMCKLKPLLEKWLNDAE [T40R], the abundance fitness was -0.021 ± 0.032.

With LEELEQFARTFKQRRIKLGFTQGDVGLAMGKLYGNDFSQLTISRFEALNLSFKNMCKLKPLLEKWLNDAE [T40L], the abundance fitness was -0.078 ± 0.06.

Consider LEELEQFARTFKQRRIKLGFTQGDVGLAMGKLYGNDFSQNTISRFEALNLSFKNMCKLKPLLEKWLNDAE [T40N], for which the abundance fitness was -0.107 ± 0.083.

On to LEELEQFARTFKQRRIKLGFTQGDVGLAMGKLYGNDFSQFTISRFEALNLSFKNMCKLKPLLEKWLNDAE [T40F], for which the abundance fitness is -0.041 ± 0.096.

Take LEELEQFARTFKQRRIKLGFTQGDVGLAMGKLYGNDFSQITISRFEALNLSFKNMCKLKPLLEKWLNDAE [T40I]: the abundance fitness is -0.285 ± 0.11.

As for LEELEQFARTFKQRRIKLGFTQGDVGLAMGKLYGNDFSQCTISRFEALNLSFKNMCKLKPLLEKWLNDAE [T40C], the abundance fitness is -0.038 ± 0.063.

In the case of LEELEQFARTFKQRRIKLGFTQGDVGLAMGKLYGNDFSQSTISRFEALNLSFKNMCKLKPLLEKWLNDAE [T40S], the abundance fitness came out at 0.032 ± 0.049.

On to LEELEQFARTFKQRRIKLGFTQGDVGLAMGKLYGNDFSQDTISRFEALNLSFKNMCKLKPLLEKWLNDAE [T40D], for which the abundance fitness was determined as 0.02 ± 0.089.

LEELEQFARTFKQRRIKLGFTQGDVGLAMGKLYGNDFSQTTCSRFEALNLSFKNMCKLKPLLEKWLNDAE [I42C]: the abundance fitness was -0.375 ± 0.16.

As for LEELEQFARTFKQRRIKLGFTQGDVGLAMGKLYGNDFSQTTASRFEALNLSFKNMCKLKPLLEKWLNDAE [I42A], the abundance fitness is -0.609 ± 0.086.

Take LEELEQFARTFKQRRIKLGFTQGDVGLAMGKLYGNDFSETTISRFEALNLSFKNMCKLKPLLEKWLNDAE [Q39E]: the abundance fitness was found to be 0.01 ± 0.037.

For the variant LEELEQFARTFKQRRIKLGFTQGDVGLAMGKLYGNDFSGTTISRFEALNLSFKNMCKLKPLLEKWLNDAE [Q39G], the abundance fitness is -0.027 ± 0.031.

As for LEELEQFARTFKQRRIKLGFTQGDVGLAMGKLYGNDFSTTTISRFEALNLSFKNMCKLKPLLEKWLNDAE [Q39T], the abundance fitness stood at 0.042 ± 0.05.

LEELEQFARTFKQRRIKLGFTQGDVGLAMGKLYGNDFSSTTISRFEALNLSFKNMCKLKPLLEKWLNDAE [Q39S]: the abundance fitness worked out at 0.005 ± 0.047.

As to LEELEQFARTFKQRRIKLGFTQGDVGLAMGKLYGNDFSLTTISRFEALNLSFKNMCKLKPLLEKWLNDAE [Q39L], the abundance fitness was -0.046 ± 0.037.

LEELEQFARTFKQRRIKLGFTQGDVGLAMGKLYGNDFSCTTISRFEALNLSFKNMCKLKPLLEKWLNDAE [Q39C]: the abundance fitness is -0.077 ± 0.061.

Regarding LEELEQFARTFKQRRIKLGFTQGDVGLAMGKLYGNDFSPTTISRFEALNLSFKNMCKLKPLLEKWLNDAE [Q39P], the abundance fitness came out at 0.035 ± 0.048.

As to LEELEQFARTFKQRRIKLGFTQGDVGLAMGKLYGNDFSRTTISRFEALNLSFKNMCKLKPLLEKWLNDAE [Q39R], the abundance fitness was -0.019 ± 0.028.

With LEELEQFARTFKQRRIKLGFTQGDVGLAMGKLYGNDFSFTTISRFEALNLSFKNMCKLKPLLEKWLNDAE [Q39F], the abundance fitness is -0.022 ± 0.08.

For LEELEQFARTFKQRRIKLGFTQGDVGLAMGKLYGNDFSATTISRFEALNLSFKNMCKLKPLLEKWLNDAE [Q39A], the abundance fitness was -0.032 ± 0.034.

Regarding LEELEQFARTFKQRRIKLGFTQGDVGLAMGKLYGNDFSDTTISRFEALNLSFKNMCKLKPLLEKWLNDAE [Q39D], the abundance fitness came out at 0.017 ± 0.082.

With LEELEQFARTFKQRRIKLGFTQGDVGLAMGKLYGNDFSMTTISRFEALNLSFKNMCKLKPLLEKWLNDAE [Q39M], the abundance fitness was -0.024 ± 0.064.

As to LEELEQFARTFKQRRIKLGFTQGDVGLAMGKLYGNDFSHTTISRFEALNLSFKNMCKLKPLLEKWLNDAE [Q39H], the abundance fitness was -0.11 ± 0.088.

With LEELEQFARTFKQRRIKLGFTQGDVGLAMGKLYGNDFSITTISRFEALNLSFKNMCKLKPLLEKWLNDAE [Q39I], the abundance fitness was -0.017 ± 0.063.

LEELEQFARTFKQRRIKLGFTQGDVGLAMGKLYGNDFSVTTISRFEALNLSFKNMCKLKPLLEKWLNDAE [Q39V]: the abundance fitness was -0.002 ± 0.031.

LEELEQFARTFKQRRIKLGFTQGDVGLAMGKLYGNDFSNTTISRFEALNLSFKNMCKLKPLLEKWLNDAE [Q39N]: the abundance fitness was -0.306 ± 0.097.

For LEELEQFARTFKQRRIKLGFTQGDVGLAMGKLYGNDFSKTTISRFEALNLSFKNMCKLKPLLEKWLNDAE [Q39K], the abundance fitness was -0.029 ± 0.056.

In the case of LEELEQFARTFKQRRIKLGFTQGDVGLAMGKLYGNDFSQTNISRFEALNLSFKNMCKLKPLLEKWLNDAE [T41N], the abundance fitness was -0.062 ± 0.092.

As to LEELEQFARTFKQRRIKLGFTQGDVGLAMGKLYGNDFSQTKISRFEALNLSFKNMCKLKPLLEKWLNDAE [T41K], the abundance fitness is -0.09 ± 0.027.
